# Where a chain is given by its changes, count along the chain named.
# T1: GFP::3xFLAG::HRDE-1 (C. elegans, UniProt Q09249 1-1032)
# T1 construct: HRDE-1/WAGO-9, germline nuclear Argonaute, C. elegans, tagged in the worm strain; Tag ends are read from the strain notation GFP::3xFLAG::HRDE-1; also called HRDE-1/WAGO-9; wild-type HRDE-1; source: C. elegans strain hrde-1(tor125[GFP::3xFLAG::hrde-1]), adult animals, in lysate; not shown: GFP, N-terminal, kept; 3xFLAG, N-terminal, kept
# T1 sequence (looked up): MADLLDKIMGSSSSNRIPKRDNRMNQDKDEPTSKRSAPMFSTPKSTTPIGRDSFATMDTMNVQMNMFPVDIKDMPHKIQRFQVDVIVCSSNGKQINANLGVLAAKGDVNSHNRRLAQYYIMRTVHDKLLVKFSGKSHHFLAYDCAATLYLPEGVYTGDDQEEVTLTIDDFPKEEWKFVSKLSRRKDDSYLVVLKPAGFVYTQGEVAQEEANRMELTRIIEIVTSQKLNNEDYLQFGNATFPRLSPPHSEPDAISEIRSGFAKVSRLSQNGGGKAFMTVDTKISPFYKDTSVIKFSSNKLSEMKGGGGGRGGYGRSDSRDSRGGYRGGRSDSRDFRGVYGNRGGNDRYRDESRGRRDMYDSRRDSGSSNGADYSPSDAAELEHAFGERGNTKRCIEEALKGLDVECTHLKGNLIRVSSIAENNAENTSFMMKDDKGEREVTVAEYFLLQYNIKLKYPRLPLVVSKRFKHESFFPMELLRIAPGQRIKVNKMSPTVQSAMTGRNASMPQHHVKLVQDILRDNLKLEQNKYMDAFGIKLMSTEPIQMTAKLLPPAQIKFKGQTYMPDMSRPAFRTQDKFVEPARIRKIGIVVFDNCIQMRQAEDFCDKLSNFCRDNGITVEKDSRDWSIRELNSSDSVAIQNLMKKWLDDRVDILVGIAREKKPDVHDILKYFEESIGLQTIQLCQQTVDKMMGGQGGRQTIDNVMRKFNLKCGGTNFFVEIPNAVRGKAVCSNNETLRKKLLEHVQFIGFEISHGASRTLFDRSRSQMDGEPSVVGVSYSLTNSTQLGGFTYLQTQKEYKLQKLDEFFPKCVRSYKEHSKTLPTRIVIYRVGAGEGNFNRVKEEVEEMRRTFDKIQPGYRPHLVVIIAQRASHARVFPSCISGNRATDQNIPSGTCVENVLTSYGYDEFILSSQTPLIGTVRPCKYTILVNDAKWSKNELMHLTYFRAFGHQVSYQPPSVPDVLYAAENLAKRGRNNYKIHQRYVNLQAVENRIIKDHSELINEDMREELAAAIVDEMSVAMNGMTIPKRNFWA
# T2: GFP::3xFLAG::HRDE-1(HK-AA) (C. elegans, UniProt Q09249 1-1032, H664A | K668A)
# T2 construct: Tag ends are read from the strain notation; Repair template is in Supplementary Data 3; source: C. elegans strain hrde-1(cmp309[HK-AA]) made in hrde-1(tor125[GFP::3xFLAG::hrde-1]), adult animals, in lysate; not shown: GFP, N-terminal, kept; 3xFLAG, N-terminal, kept
# T2 sequence (looked up): T1 sequence (looked up) with H664A, K668A
# B1: HRDE-2::2xTy1::GFP (natural protein, C. elegans, UniProt Q22058 1-305, looked up)
# chain: MSQNSDTFDSGLQMEVHKMAEADNSSVQQKFDAIRDYIGRKETTIILCEHDDSRKIKLTLNKQRMESSMFLTEMPDGGIQEKTKFHRNGLAVCSYNAFDEVDLPLADSYIFYGLPSNVEAFPRMLHGIEKSAHKENKIVFIDIVVSILEKIQIKVVSFELYNRKCTVPTWVAELVITYCAPIEEQQQRIEEIRRTRASVPVAISDAANGSAEMVPSNTTGSSGSPMSTAPVPAAKKEKVQYESIRQIRPNAQGRYFVPARMINMDIEMSNDEYSPDESENDENEYDYENAARYDDGYDEGHEYCQ
# notes: HRDE-2 (HRDE-2/ENRI-3), C. elegans, tagged in the worm strain; Tag ends are read from the strain notation HRDE-2::2xTy1::GFP; also called HRDE-2/ENRI-3; source: C. elegans strain hrde-2/enri-3(tag1660[hrde-2/enri-3::2xTy1::GFP]), adult animals, in lysate; not shown: 2xTy1, C-terminal, kept; GFP, C-terminal, kept
# Key:
# GFP::3xFLAG::HRDE-1 = molecular target: T1, GFP::3xFLAG::HRDE-1; test: co-IP; lysate of adult animals; anti-FLAG beads precipitate GFP::3xFLAG::HRDE-1, HRDE-2::2xTy1::GFP detected with anti-Ty1; wild-type, mut-2 mutant and hrde-1(HK-AA) backgrounds; band intensities by ImageJ normalized to HRDE-1 immunoprecipitated and to wild-type; settings: partners not purified
# [1] = molecular target: T2, GFP::3xFLAG::HRDE-1(HK-AA); test: as above; settings: partners not purified
binder,measurement,setting,value
B1,fold change of co-precipitated HRDE-2 in the mut-2 mutant against wild-type,GFP::3xFLAG::HRDE-1,~2.18 fold
same,fold change of co-precipitated HRDE-2 against wild-type HRDE-1,[1],~3.3 fold
